Reference: US20190134143A1

Target: PDZ1/2 domain
Assay: SPR, Biacore 3000; PDZ1/2 amine-coupled to the chip, peptide as analyte, 1:1 binding model

Sequence of PDZ1/2 domain (P78352 65-246): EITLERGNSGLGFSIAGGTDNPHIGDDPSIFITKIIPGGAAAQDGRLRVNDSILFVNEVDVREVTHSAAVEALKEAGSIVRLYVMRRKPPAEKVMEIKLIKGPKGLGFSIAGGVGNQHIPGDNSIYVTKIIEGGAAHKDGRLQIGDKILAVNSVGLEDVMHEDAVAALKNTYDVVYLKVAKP

YGRKKRRQRRRKLSSIESDV (modifications not checked) [control chimeric peptide NA-1]
Kd: 75.3 nM
